The results in this text go back to patent publication US9273099 (Dana-Farber, dated 2016).

Where no end group is shown, it is not given here. The star is where a group is joined. FITC = O=C1OC2(c3ccc(O)cc3Oc3cc(O)ccc32)c2ccc(NC(=S)*)cc21; βAla = NCCC(=O)O

The target in test [1] is C-terminal deleted GST-BCL-2 (UniProt P10415). Description: fluorescence polarization binding.
For test [2] the target is unchanged. The experiment in a line: fluorescence polarization, displacement of prebound FITC-BID BH3 from BCL-2. In general terms: Polarisation of emitted light reports the rotation of a fluorescent probe.
For test [3] the target is unchanged. The experiment in a line: direct fluorescence polarization, 25 nM fluoresceinated peptide with GST-BCL2 25-1000 nM.
Test [4] shares this target. Description: direct fluorescence polarization.
Test [5] shares this target. Description: fluorescence polarization competitive binding, FITC-BID BH3 as competitor.
For test [6] the target is unchanged. The experiment in a line: fluorescence polarization, displacement of FITC-BID BH3 from BCL-2.
Test [7] has the same target. The experiment in a line: fluorescence polarization direct binding.
For another test, the target named is T1, Full-length BAX protein (UniProt Q07812 1-192, limits assumed).
T1 construct: mature
T1 sequence (Q07812 whole entry): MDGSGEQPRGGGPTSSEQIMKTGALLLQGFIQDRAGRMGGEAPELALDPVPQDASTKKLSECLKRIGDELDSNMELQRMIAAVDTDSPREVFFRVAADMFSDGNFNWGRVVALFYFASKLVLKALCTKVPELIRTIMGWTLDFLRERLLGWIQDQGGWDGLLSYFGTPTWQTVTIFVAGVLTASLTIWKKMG
Description: BAX fluorescence polarization direct binding assay.

Description for Full-length BAX protein: Binding activity was measured by fluorescence polarization on a Perkin-Elmer LS50B luminescence spectrophotometer. KD values were determined by nonlinear regression analysis using Prism software (Graphpad).

Consider “BAD BH3 domain peptide (from UniProt Q92934 103-127)”, for which, in test [1], the dissociation constant Kd (as a rule, the concentration at which binding is half-saturated) came out at 41 nM. In addition, the IC50 – broadly, the concentration needed to halve the response being measured – in test [2] is 173 nM.
Turning to FITC-SAHB3BID(G→E)A (peptide), the Kd in test [3] turned out to be 483 nM.
For the molecule FITC-SAHB3BIDA (peptide), the equilibrium dissociation constant (Kd) in test [3] was determined as 38.8 nM. In test [4], the fold enhancement in binding affinity against unmodified BID BH3 was over 6 fold and the fold enhancement in binding affinity against unmodified BID BH3 peptide was found to be 6 fold.
Regarding SAHB3BID(tr)B (16-mer) (peptide), in test [5], the fold drop against the 23-mer SAHB3BIDB is over 6 fold.
As to SAHB3BIDA (unlabeled) (peptide), in test [6], the IC50 is 62 nM and the fold increase in displacement potency against unmodified BID BH3 peptide is over 13 fold.

B1: FITC-labeled unmodified BID BH3 peptide (peptide, UniProt P55957 80-101, looked up)
peptide: {FITC-βAla}-EDIIRNIARHLAQVGDSMDRSI
notes: domain: BH3; also called FITC-BID BH3; FITC-labeled BID BH3 peptide
In turn, B1 returned a dissociation constant Kd in test [7] of 220 nM. The binding result in the test with Full-length BAX protein is given as “no binding”.
